Legend:
GST-RT (HIV-1 (NL4-3)) = assay: pull-down; 5 ug GST-tagged proteins on glutathione sepharose 4B beads incubated 1 hour at 4°C with normalized clarified bacterial lysates of 6His-IN in 20 mM HEPES-KOH pH 8.0, 5 mM DTT, 0.1% IGEPAL; washes with 200 mM NaCl, 0.5% IGEPAL; Western blot, densitometry relative to WT
GST-INI1 [1] = molecular target: GST-INI1 (UniProt Q12824); assay: pull-down; in vitro binding of His6-IN with GST-INI1; data not shown
GST-SAP18 [2] = molecular target: GST-SAP18 (UniProt O00422); assay: pull-down; 5 ug GST-tagged proteins on glutathione sepharose 4B beads incubated 1 hour at 4°C with normalized clarified bacterial lysates of 6His-IN in 20 mM HEPES-KOH pH 8.0, 5 mM DTT, 0.1% IGEPAL; washes with 200 mM NaCl, 0.5% IGEPAL; Western blot, densitometry relative to WT
Sequence of GST-SAP18 (O00422 whole entry): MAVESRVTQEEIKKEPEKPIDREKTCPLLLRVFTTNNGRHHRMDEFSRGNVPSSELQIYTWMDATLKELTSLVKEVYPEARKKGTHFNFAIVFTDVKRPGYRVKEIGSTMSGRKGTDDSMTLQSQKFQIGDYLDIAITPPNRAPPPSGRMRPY

GST-SAP18 [3] = molecular target: GST-SAP18 (UniProt O00422); assay: GST pull-down, Western blot quantitation; conditions: 5μg of GST-tagged proteins were used for each pull-down reaction; parent: est. 1.0; read off a plot
GST-INI1 [4] = molecular target: GST-INI1 (UniProt Q12824); assay: pull-down; 5 ug GST-INI1 on glutathione sepharose 4B beads incubated 1 hour at 4°C with clarified 293 T whole cell lysates normalized for YFP-IN levels; Western blot, densitometry, binding relative to YFP-WT

Sequence of GST-INI1 (Q12824 whole entry): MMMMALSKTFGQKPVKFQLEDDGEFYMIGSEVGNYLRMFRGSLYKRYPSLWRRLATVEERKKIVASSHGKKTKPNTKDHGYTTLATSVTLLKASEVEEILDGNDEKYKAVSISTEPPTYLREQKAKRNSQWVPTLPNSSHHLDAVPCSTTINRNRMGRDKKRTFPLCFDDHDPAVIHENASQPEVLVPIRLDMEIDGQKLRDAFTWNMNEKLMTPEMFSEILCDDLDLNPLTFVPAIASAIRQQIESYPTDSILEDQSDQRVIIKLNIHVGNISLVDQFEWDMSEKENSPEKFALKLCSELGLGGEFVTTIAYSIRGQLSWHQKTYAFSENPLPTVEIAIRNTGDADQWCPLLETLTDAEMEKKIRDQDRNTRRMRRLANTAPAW

| Substance | ratio to parent (GST-SAP18 [3]) | % binding to INI1 relative to wild type (GST-INI1 [4]) | also measured |
| --- | --- | --- | --- |
| His6-tagged IN D202G (natural protein) |  |  | % RT binding compared to WT (GST-RT (HIV-1 (NL4-3))): 80% |
| His6-tagged IN K111E (natural protein) |  |  | % binding compared to His6-WT (GST-INI1 [1]): 60% |
| His6-tagged IN Q137R (natural protein) |  |  | % RT binding compared to WT (GST-RT (HIV-1 (NL4-3))): 45%; fold decrease in binding relative to WT (GST-SAP18 [2]): 4 fold |
| His6-tagged WT IN D202G | 0.84 |  |  |
| His6-tagged WT IN K71R | 1.1 |  |  |
| His6-tagged WT IN K111E | 1.3 |  |  |
| His6-tagged WT IN S147G | 1 |  |  |
| YFP-IN D202G (natural protein) |  | 32% |  |
| YFP-IN H12Y (natural protein) |  | 20.6% |  |
| YFP-IN K71R (natural protein) |  | 46% |  |
| YFP-IN Q137R (natural protein) |  | 10% |  |
| YFP-IN S147G (natural protein) |  | 77% |  |
| YFP-WT IN (natural protein) |  | 100% |  |
